The source of these data is PMC11369598.

B1: KLHL6 wild type, C-terminal Strep-HA tag (KLHL6-strHA) [human] / adapter protein BANK1 [human (endogenous in SuDHL5 and U2932)] (parent)
chain 1: MLMAGQRGAWTMGDVVEKSLEGPLAPSTDEPSQKTGDLVEILNGEKVKFDDAGLSLILQNGLETLRMENALTDVILCVDIQEFSCHRVVLAAASNYFRAMFCNDLKEKYEKRIIIKGVDAETMHTLLDYTYTSKALITKQNVQRVLEAANLFQFLRMVDACASFLTEALNPENCVGILRLADTHSLDSLKKQVQSYIIQNFVQILNSEEFLDLPVDTLHHILKSDDLYVTEEAQVFETVMSWVRHKPSERLCLLPYVLENVRLPLLDPWYFVETVEADPLIRQCPEVFPLLQEARMYHLSGNEIISERTKPRMHEFQSEVFMIIGGCTKDERFVAEVTCLDPLRRSRLEVAKLPLTEHELESENKKWVEFACVTLKNEVYISGGKETQHDVWKYNSSINKWIQIEYLNIGRWRHKMVVLGGKVYVIGGFDGLQRINNVETYDPFHNCWSEAAPLLVHVSSFAATSHKKKLYVIGGGPNGKLATDKTQCYDPSTNKWSLKAAMPVEAKCINAVSFRDRIYVVGGAMRALYAYSPLEDSWCLVTQLSHERASCGIAPCNNRLYITGGRDEKNEVIATVLCWDPEAQKLTEECVLPRGVSHHGSVTIRKSYTHIRRIVPGAVSV
chain 2: MLPAAPGKGLGSPDPAPCGPAPPGNTKDIIMIYEEDAEEWALYLTEVFLHVVKREAILLYRLENFSFRHLELLNLTSYKCKLLILSNSLLRDLTPKKCQFLEKILHSPKSVVTLLCGVKSSDQLYELLNISQSRWEISTEQEPEDYISVIQSIIFKDSEDYFEVNIPTDLRAKHSGEISERKEIEELSEASRNTIPLAVVLPTEIPCENPGEIFIILRDEVIGDTVEVEFTSSNKRIRTRPALWNKKVWCMKALEFPAGSVHVNVYCDGIVKATTKIKYYPTAKAKECLFRMADSGESLCQNSIEELDGVLTSIFKHEIPYYEFQSLQTEICSQNKYTHFKELPTLLHCAAKFGLKNLAIHLLQCSGATWASKMKNMEGSDPAHIAERHGHKELKKIFEDFSIQEIDINNEQENDYEEDIASFSTYIPSTQNPAFHHESRKTYGQSADGAEANEMEGEGKQNGSGMETKHSPLEVGSESSEDQYDDLYVFIPGADPENNSQEPLMSSRPPLPPPRPVANAFQLERPHFTLPGTMVEGQMERSQNWGHPGVRQETGDEPKGEKEKKEEEKEQEEEEDPYTFAEIDDSEYDMILANLSIKKKTGSRSFIINRPPAPTPRPTSIPPKEETTPYIAQVFQQKTARRQSDDDKFCGLPKKQDRARIESPAFSTLRGCLTDGQEELILLQEKVKNGKMSMDEALEKFKHWQMGKSGLEMIQQEKLRQLRDCIIGKRPEEENVYNKLTIVHHPGGKETAHNENKFYNVHFSNKLPARPQVEKEFGFCCKKDH
B2: KLHL6 wild type, C-terminal Strep-HA tag (KLHL6-strHA) [human] / endogenous KLHL6 [human (endogenous in SuDHL5 and SuDHL4)] (parent)
chain 1: B1 chain 1
chain 2: B1 chain 1
B3: KLHL6 wild type, C-terminal Strep-HA tag (KLHL6-strHA) [human] / KLHL26 [human (endogenous in SuDHL5)] (parent)
chain 1: B1 chain 1
chain 2: MAESGGSSGGAGGGGAFGAGPGPERPNSTADKNGALKCTFSAPSHSTSLLQGLATLRAQGQLLDVVLTINREAFPAHKVVLAACSDYFRAMFTGGMREASQDVIELKGVSARGLRHIIDFAYSAEVTLDLDCVQDVLGAAVFLQMLPVVELCEEFLKAAMSVETCLNIGQMATTFSLASLRESVDAFTFRHFLQIAEEEDFLRLPLERLVFFLQSNRLQSCAEIDLFRAAVRWLQHDPARRPRASHVLCHIRFPLMQSSELVDSVQTLDIMVEDVLCRQYLLEAFNYQVLPFRQHEMQSPRTAVRSDVPSLVTFGGTPYTDSDRSVSSKVYQLPEPGARHFRELTEMEVGCSHTCVAVLDNFVYVAGGQHLQYRSGEGAVDACYRYDPHLNRWLRLQAMQESRIQFQLNVLCGMVYATGGRNRAGSLASVERYCPRRNEWGYACSLKRRTWGHAGAASGGRLYISGGYGISVEDKKALHCYDPVADQWEFKAPMSEPRVLHAMVGAGGRIYALGGRMDHVDRCFDVLAVEYYVPETDQWTSVSPMRAGQSEAGCCLLERKIYIVGGYNWRLNNVTGIVQVYNTDTDEWERDLHFPESFAGIACAPVLLPRAGTRR
B4: KLHL6 wild type fused to C-terminal BioID2 [human] / LuZP1 [human (endogenous in SuDHL5 and U2932)] (parent)
chain 1: B1 chain 1
chain 2: MAEFTSYKETASSRHLRFKLQSLSRRLDELEEATKNLQKAEDELLDLQDKVIQAEGSNSSMLAEIEVLRQRVLRIEGKDEEIKRAEDLCRLMKEKLEEEENLTRELKSEIERLQKRMAELEKLEEAFSRSKNDCTQLCLSLNEERNLTKKISSELEMLRVKVKELESSEDRLDKTEQSLASELEKLKSLTLSFVSERKYLNEKEKENEKLIKELTQKLEQNKKMNRDYTRNASNLERNDLRIEDGISSTLPSKESRRKGGLDYLKQVENETRNKSENEKNRNQEDNKVKDLNQEIEKLKTQIKHFESLEEELKKMKSKNNDLQDNYLSEQNKNKLLASQLEEIKLQIKKQKELENGEVEGEDAFLSSKGRHERTKFRGHGSEASVSKHTARELSPQHKRERLRNREFALNNENYSLSNRQVSSPSFTNRRAAKASHMGVSTDSGTQETKKTEDRFVPGSSQSEGKKSREQPSVLSRYPPAAQEHSKAWKGTSKPGTESGLKGKVEKTTRTFSDTTHGSVPSDPLGRADKASDTSSETVFGKRGHVLGNGSQVTQAANSGCSKAIGALASSRRSSSEGLSKGKKAANGLEADNSCPNSKAPVLSKYPYSCRSQENILQGFSTSHKEGVNQPAAVVMEDSSPHEALRCRVIKSSGREKPDSDDDLDIASLVTAKLVNTTITPEPEPKPQPNSREKAKTRGAPRTSLFENDKDAGMENESVKSVRASTNTMELPDTNGAGVKSQRPFSPREALRSRAIIKPVIVDKDVKKIMGGSGTETTLEKQKPVSKPGPNKVTSSITIYPSDSSSPRAAPGEALRERHTSTSNIQVGLAELTSVSNHVSSPFELSIHKHDITLQLAEAERMADGPLKDRPETVVSRSSIIIKPSDPVERNSHAPPAETIRWKSHSAPSEVGFSDARHVTVRNAWKSRRDLKSLEDPPTRIGKNVESTNSNAYTQRSSTDFSELEQPRSCLFEQGTRRVGPSSGDAPEPSSRRTQSSLTVSEVLTRRNRVGDTITVAAWNHSASMEEEGEDCTLSVYRQLHNSLDPSELPGKQGLPESGRVRAEERLRPTRPCAEEN
B5: KLHL6 wild type, C-terminal Strep-HA tag (KLHL6-strHA) [human] / KLHL7 [human (endogenous in SuDHL5)] (parent)
chain 1: B1 chain 1
chain 2: MAASGVEKSSKKKTEKKLAAREEAKLLAGFMGVMNNMRKQKTLCDVILMVQERKIPAHRVVLAAASHFFNLMFTTNMLESKSFEVELKDAEPDIIEQLVEFAYTARISVNSNNVQSLLDAANQYQIEPVKKMCVDFLKEQVDASNCLGISVLAECLDCPELKATADDFIHQHFTEVYKTDEFLQLDVKRVTHLLNQDTLTVRAEDQVYDAAVRWLKYDEPNRQPFMVDILAKVRFPLISKNFLSKTVQAEPLIQDNPECLKMVISGMRYHLLSPEDREELVDGTRPRRKKHDYRIALFGGSQPQSCRYFNPKDYSWTDIRCPFEKRRDAACVFWDNVVYILGGSQLFPIKRMDCYNVVKDSWYSKLGPPTPRDSLAACAAEGKIYTSGGSEVGNSALYLFECYDTRTESWHTKPSMLTQRCSHGMVEANGLIYVCGGSLGNNVSGRVLNSCEVYDPATETWTELCPMIEARKNHGLVFVKDKIFAVGGQNGLGGLDNVEYYDIKLNEWKMVSPMPWKGVTVKCAAVGSIVYVLAGFQGVGRLGHILEYNTETDKWVANSKVRAFPVTSCLICVVDTCGANEETLET

Variants of B1 are the subject of the first assay. The assay can be described thus: AP-MS (Strep affinity purification, spectral counts). The note with it: with adapter protein BANK1 [human (endogenous in SuDHL5 and U2932)]; SuDHL5 cells; read off a plot.
Take chain 1 L65P: the response (spectral counts) was 0.5.

chain 1 L90F: the response (spectral counts) came to 7.5.

In the case of chain 1 E568K, the response (spectral counts) was determined as 2.

In another assay the parent is B2. The assay can be described thus: AP-MS (spectral counts of the WT, leucine-65 peptide in the L65P bait pull-down). The note with it: with endogenous KLHL6 [human (endogenous in SuDHL5 and SuDHL4)]; SuDHL5 cells; read off a plot.
With chain 1 L65P, the response (spectral counts) came to 5.

The variants in a further assay derive from B2. The assay can be described thus: AP-MS (spectral counts of the WT, leucine-90 peptide in the L90F bait pull-down). To be noted: with endogenous KLHL6 [human (endogenous in SuDHL5 and SuDHL4)]; SuDHL5 cells; read off a plot.
With chain 1 L90F, the response (spectral counts) turned out to be 1.

A further assay covers variants of B3. The assay can be described thus: AP-MS (Strep affinity purification, spectral counts). The note with it: with KLHL26 [human (endogenous in SuDHL5)]; SuDHL5 cells; read off a plot.
On to chain 1 E568K, for which the response (spectral counts) was determined as 15.

For chain 1 L65P, the response (spectral counts) amounted to 0.

For the variant chain 1 L90F, the response (spectral counts) was 0.5.

The variants in another assay derive from B3. The assay can be described thus: AP-MS (Strep affinity purification, mass spectrometry; DESeq2 model). To be noted: with KLHL26 [human (endogenous in SuDHL5)]; SuDHL5 cells; WT eight replicates, L65P four replicates; read off a plot.
Regarding chain 1 L65P, the screen value came to 4.4 log2.

The assay is the same for the next values; noted with them: with KLHL26 [human (endogenous in SuDHL5)]; SuDHL5 cells; WT eight replicates, L90F eight replicates; read off a plot.
In the case of chain 1 L90F, the screen value stood at 2.7 log2.

Variants of B4 are the subject of a further assay. The assay can be described thus: BioID2 proximity labelling, mass spectrometry (spectral counts). The note with it: with LuZP1 [human (endogenous in SuDHL5 and U2932)]; SuDHL5 cells; read off a plot.
On to chain 1 L65P, for which the response (spectral counts) amounted to 13.

As to chain 1 E547K, the response (spectral counts) was found to be 1.5.

As to chain 1 E568K, the response (spectral counts) is 1.5.

In a further assay the parent is B4. The assay can be described thus: BioID2 proximity labelling, mass spectrometry. To be noted: with LuZP1 [human (endogenous in SuDHL5 and U2932)]; SuDHL5 cells; read off a plot.
In the case of chain 1 E568K, the screen value is 2.4 log2.

Variants of B5 are the subject of a further assay. The assay can be described thus: AP-MS (Strep affinity purification, spectral counts). To be noted: with KLHL7 [human (endogenous in SuDHL5)]; SuDHL5 cells; read off a plot.
Consider chain 1 L90F, for which the response (spectral counts) was 0.

For the variant chain 1 L65P, the response (spectral counts) came to 0.

Consider chain 1 E568K, for which the response (spectral counts) was found to be 20.

The variants in the next assay derive from B5. The assay can be described thus: AP-MS (Strep affinity purification, mass spectrometry; DESeq2 model). To be noted: with KLHL7 [human (endogenous in SuDHL5)]; SuDHL5 cells; WT eight replicates, L90F eight replicates; read off a plot.
For the variant chain 1 L90F, the screen value was found to be 4.9 log2.

The same assay, now with this note: with KLHL7 [human (endogenous in SuDHL5)]; SuDHL5 cells; WT eight replicates, L65P four replicates; read off a plot.
Turning to chain 1 L65P, the screen value was 4.9 log2.
